{"source": "patent US20240425848A1", "target": "histone H3 trimethylated at lysine 9 (H3K9me3) in chromatin of NIH-3T3 cells (UniProt P68433)"}
{"substance": "TnH #3: 112aaCD (HP1α)-3×(TGS)-Tn5 (enzyme)", "values": [{"measurement": "score: coefficient of the linear model for the difference between TnH and Tn5 enrichment (scGET-seq, NIH-3T3), region chrUn JH584304:0-114452, cell group 1 (G2/M)", "value": -0.133}, {"measurement": "score: coefficient of the linear model for the difference between TnH and Tn5 enrichment (scGET-seq, NIH-3T3), region chrUn JH584304:0-114452, cell group 2 (G2/M)", "value": -0.105}, {"measurement": "score: coefficient of the linear model for the difference between TnH and Tn5 enrichment (scGET-seq, NIH-3T3), region chrUn JH584304:0-114452, cell group 3 (G1/S)", "value": 0.329}, {"measurement": "score: coefficient of the linear model for the difference between TnH and Tn5 enrichment (scGET-seq, NIH-3T3), region chrUn JH584304:0-114452, cell group 4 (G1/S)", "value": 0.067}, {"measurement": "score: coefficient of the linear model for the difference between TnH and Tn5 enrichment (scGET-seq, NIH-3T3), region chrUn JH584304:0-114452, cell group 5 (G2/M)", "value": -0.146}, {"measurement": "score: coefficient of the linear model for the difference between TnH and Tn5 enrichment (scGET-seq, NIH-3T3), region chrUn JH584304:0-114452, cell group 6 (G1/S)", "value": 0.138}, {"measurement": "score: coefficient of the linear model for the difference between TnH and Tn5 enrichment (scGET-seq, NIH-3T3), region chrUn JH584304:0-114452, cell group 7 (G2/M)", "value": -0.189}, {"measurement": "score: coefficient of the linear model for the difference between TnH and Tn5 enrichment (scGET-seq, NIH-3T3), region chrUn JH584304:0-114452, cell group 8 (G2/M)", "value": -0.287}, {"measurement": "score: coefficient of the linear model for the difference between TnH and Tn5 enrichment (scGET-seq, NIH-3T3), region chrUn JH584304:0-114452, cell group 9 (G1/S)", "value": -0.523}, {"measurement": "score: coefficient of the linear model for the difference between TnH and Tn5 enrichment (scGET-seq, NIH-3T3), region chrUn JH584304:0-114452, cell group 10 (G2/M)", "value": -0.073}, {"measurement": "score: coefficient of the linear model for the difference between TnH and Tn5 enrichment (scGET-seq, NIH-3T3), region chrUn JH584304:0-114452, cell group 11 (G1/S)", "value": -0.457}, {"measurement": "score: coefficient of the linear model for the difference between TnH and Tn5 enrichment (scGET-seq, NIH-3T3), region chrUn JH584304:0-114452, cell group 12 (G1/S)", "value": 0.163}, {"measurement": "score: coefficient of the linear model for the difference between TnH and Tn5 enrichment (scGET-seq, NIH-3T3), region chrUn JH584304:0-114452, cell group 13 (G2/M)", "value": -0.528}, {"measurement": "score: coefficient of the linear model for the difference between TnH and Tn5 enrichment (scGET-seq, NIH-3T3), region chrUn JH584304:0-114452, cell group 14 (G2/M)", "value": -0.28}, {"measurement": "score: coefficient of the linear model for the difference between TnH and Tn5 enrichment (scGET-seq, NIH-3T3), region chrUn JH584304:0-114452, cell group 15 (G1/S)", "value": -0.47}, {"measurement": "score: coefficient of the linear model for the difference between TnH and Tn5 enrichment (scGET-seq, NIH-3T3), region chrUn JH584304:0-114452, cell group 16 (G1/S)", "value": 0.576}, {"measurement": "score: coefficient of the linear model for the difference between TnH and Tn5 enrichment (scGET-seq, NIH-3T3), region chrUn JH584304:0-114452, cell group 17 (G2/M)", "value": 0.468}, {"measurement": "score: coefficient of the linear model for the difference between TnH and Tn5 enrichment (scGET-seq, NIH-3T3), region chrUn JH584304:0-114452, cell group 18 (G1/S)", "value": -0.089}, {"measurement": "score: coefficient of the linear model for the difference between TnH and Tn5 enrichment (scGET-seq, NIH-3T3), region chrUn JH584304:0-114452, cell group 19 (G1/S)", "value": -0.129}, {"measurement": "score: coefficient of the linear model for the difference between TnH and Tn5 enrichment (scGET-seq, NIH-3T3), region chrUn JH584304:0-114452, cell group 20 (G2/M)", "value": -0.011}, {"measurement": "score: coefficient of the linear model for the difference between TnH and Tn5 enrichment (scGET-seq, NIH-3T3), region chrUn JH584304:0-114452, cell group 21 (G2/M)", "value": 0.138}]}
{"substance": "TnH #3: 112aaCD (HP1α)-3×(TGS)-Tn5", "values": [{"measurement": "score: coefficient of the linear model for the difference between TnH and Tn5 enrichment (scGET-seq, NIH-3T3), region chrUn JH584304:0-114452, cell group 0 (G1/S)", "value": 0.198}]}
